Laboratory results published in PMC11756183.

Experiment: IP and western blot in MSC-T
Settings: glycan lost; control: wild-type GPNMB (MSC-T/OEG)

B1: GPNMB (Glycoprotein non-metastatic melanoma protein B): N249Q (protein)
parent chain: MESLCGVLGFLLLAAGLPLQAAKRFRDVLGHEQYPDHMREHNQLRGWSSDENEWDEHLYPVWRRGDGRWKDSWEGGRVQAVLTSDSPALVGSNITFVVNLVFPRCQKEDANGNIVYEKNCRNDLGLTSDLHVYNWTAGADDGDWEDGTSRSQHLRFPDRRPFPRPHGWKKWSFVYVFHTLGQYFQKLGRCSARVSINTVNLTAGPQVMEVTVFRRYGRAYIPISKVKDVYVITDQIPVFVTMSQKNDRNLSDEIFLRDLPIVFDVLIHDPSHFLNDSAISYKWNFGDNTGLFVSNNHTLNHTYVLNGTFNLNLTVQTAVPGPCPPPSPSTPPPPSTPPSPPPSPLPTLSTPSPSLMPTGYKSMELSDISNENCRINRYGYFRATITIVEGILEVSIMQIADVPMPTPQPANSLMDFTVTCKGATPMEACTIISDPTCQIAQNRVCSPVAVDGLCLLSVRRAFNGSGTYCVNFTLGDDASLALTSTLISIPGKDPDSPLRAVNGVLISIGCLAVLVTMVTILLYKKHKAYKPIGNCPRNTVKGKGLSVLLSHAKAPFFRGDQEKDPLLQDKPRTL
Q: With B1 as the protein, how does the expression_or_secretion read?
A: decreases
